Experimental data as given in patent US20240287489A1, “CHITINOLYTIC ENZYME-BASED PLANT PROTECTION AGENTS” (GLOBACHEM NV, priority 2021, published 2024).

B1: Chitinase 1: chitinolytic enzyme from P. orarium, SEQ ID NO: 1, recombinant with PelB signal peptide and 6×His tag; run 19 = 2 μM alone (protein, listed as Photobacterium orarium)
chain: MAAPGTPQIAWMETDYAIVEVDQAASAYKSLITVKPAAEVPVAWQRYSGETADLWKVKLNGNVVFEQSIAPASSGAGSTTLSVAQGGQYAMTVELCSGTGAAQACTSSAATNIVVADTDGSHLDPLPMNVDANNGNYTTPANTVVGAYFVEWGVYGRKFSVDNIPAQNLTHILYGFIPICGPNESLGEIENGNSLAALNRACQGTPDYEVVIHDPWAAVQMPQPQSGHTHSTPYKGTYGQMMALKQRYPDLKIVPSVGGWTLSDPFYSFTDKAKRDIFVASVKKFLKTWKFFDGVDIDWEFPGGKGANANLGDPVNDGPAYVALMRELRVMLDELEAETGRQYELTSAIGVGYDKIDVVNYADAVQYMDYIFAMTYDFFGGWNNVPGHQTALFCGSHMSADVCNGTGVDENGVPRQGPAYTAAHGIDRLLAQGVPANKLVLGTAMYARGWTGVTEASMTDPTNPMTGTGNGMVPGSWEPGVIDYKDVVTDYINNAAVTKGYDAQAEAPWAYNPSNGNLITYDDRRSVLAKGQYVRNLGLAGLFAWEIDADNGDILNAMQDSLAGGGGNYAPVAKAGADQVVNGAASVTLDGSASSDRDGQIVSYQWTQTSGPALTLTGSDTATATVAVPEVTADTQYAFTLTVTDNAGDTATDSVTVTAKAPGSNTAPVVAVSGPATASAGDTVVLDASQSSDADGDTLTFTWTVPAGVNATVNGATVSFVADSYTVDTPLNFTVAVSDGTDSVTESVTVTVLKDGGSTGCTNAWATGGVYNSGDIVTHSGKSWKAKWWTTGEEPGTTGEWGVWEDLGAANCQIE
modifications: PelB signal peptide; 6xHis tag; Chitinase 1
notes: run 19 = 2 μM alone
B2: Chitinase 3: chitinolytic enzyme from P. orarium, SEQ ID NO: 3, recombinant with PelB signal peptide and 6×His tag (protein, listed as Photobacterium orarium)
chain: MALAAPGTPQLAWMETDYAIVEVDQAATAYKDLVTVKNAADVPVAWQRYSGETADHWKVKLNGNVAFEESINPASSGAGSTTLSITQGGQYALTVELCSGSGAEEACSSSPATNIVVADTDGSHLDPLPMNVDPNNGTYSTPADTVVGAYFVEWGVFGRKFTVDKIPAQNLTHILYGFIPVCGPNESLGEIESGNSLAALNRACAGTPDFEVAIHDPWAAVQMPQPQSGHTYSTPYKGNYGQLMALKQRYPDLKVIPSIGGWTLSDPFFSFTDKSKRDVFVASVKKFLQTWKFFDGVDIDWEFPGGKGANTTLGDPVNDGPAYVALMRELRTMLDGLEAETGRQFELTSAIGVGYDKIDVVNYAEASQYMDYIFNMSYDFYGGWSNVTGHQTALNCGSHLTADQCNGTGVDENGEPRQGPAYTTAHGVERLLAQGVPANKLVVGAAMYGRGWTGVTQASMTDPSNPMTGVGNGAVAGSWEAGVIDYKDVVTRYENKAGVVLGYDEQAEAPWAYDPSNGDLVTYDSPRSIMAKGQYVRDLGLAGLFAWEIDADNGDILNAMQESLAGAPAGNRAPVARAGSDQQVNTAATVTLNGSSSTDSDGQIAGYQWVQTSGPALTLNGANTASATISVPDVTVDTQYVFTLTVTDNEGATATDSITVTAKAPGAQNTAPVASLTGPGTANADDVITLDASQSTDADGDTLTYDWTVPAGVNAVINGSSLSFTADSYTTDTALSFSVSVSDGTASDAASLTVTIAKDESGTGGEGDFPAYVEGTAYQAGDQVSNGGVNFECKPYPYSGWCSGAAWAYEPGVGVYWQDAWTQLIE
modifications: PelB signal peptide; 6xHis tag; Chitinase 3
B3: Chitinase 4: chitinolytic enzyme from P. orarium, SEQ ID NO: 4, recombinant with PelB signal peptide and 6×His tag (protein, listed as Photobacterium orarium)
chain: MAQAAANCRPDGLYQTPGVTVPYCTVYDQDGREKMGVDHPRRVIGYFTSWRSGNDPQSSYLVNDIPWDSLTHINYAFVSIGSDGKVNIGNVNNPDNPAVGKEWPGVEIDPALGFKGHFGALATAKAQHGVKTLISIGGWAETGGHFDDNGNRVADGGFYTMTTNADGSINHQGIQTFADSAVAMMRQYKFDGLDIDYEYPTSMQGAGNPDDFAYSDAMRPHLMKSYHELMKVLREKLDQASAQDGHHYMLTIAAPSSGYLLRGMETMSVTKYLDYVNIMSYDLHGAWNDYVGHNASLFDSGLDAELEAGNVYGTAQYKKTGYLNTDWAYHYFRGSMPAGRINIGVPYYTRGWQGVTGGTNGLWGKAALPNQSDCPTGTGAGTSNCGYGAIGIDNMWHDKDANGNEMGAGSNPMWHAMNLANGVYGSYTAAYGLDPVNDPQDALTGTYTRHYDSVSVAPWLWNADKKVFLSTEDKESINTKADYVIEQGIGGIMFWELAGDYSCYNLDANGNRTTVDPTENACKTGNGEYHMGDTMTKAIHNKFATATPYGNTLAEGAIPTEAVNIDVSVTGFKVGDQNYPLNPTMTLTNKTGQTLPGGTEFQFDIPTSTPDNMSDQSGANLQVISSGHTRGDNIGGLDGNFHRVAFTLPSWKQLGNNESFELTLNYFLPISGPANYSVRVNNADYALAFEQPDLPIADLSNGGGDNGGGDGNNGDCVTTGVNTYPNWPQTDWAGNPSHAGTGDKIIYNGAVYQAKWWTNSVPGSDGSWDTVCTVQIE
modifications: PelB signal peptide; 6xHis tag; Chitinase 4

How the values were obtained:
[1] = Reducing end assay, specific chitinase activity of expression and purification fractions; type: biochemical; conditions: chitin powder, 16 h at 30° C.
Procedure: Integrity and correctness of the constructs was confirmed by colony PCR and Sanger-sequencing. All constructs were transformed into E. coli BL21 and expressed recombinantly. Expression levels of the target enzymes were determined densitometrically after immunoblot detection for cytosolic and secreted expression. Enzymatic activity was determined for all samples using a reducing end assay. […] Furthermore, it was confirmed that these enzymes are efficiently released into the culture supernatant, rendering cell lysis unnecessary for future production cycles.
A two-step purification of the selected recombinant enzymes with PelB signal peptide form the culture supernatant was carried out with an initial ammonium sulfate precipitation step and a sequential IMAC purification of the solubilized protein precipitate. Elution fractions were pooled and an SDS-PAGE and immunoblot was prepared loading the same volume for each sample (FIG. 4). Expression levels of the five chitinases varied largely, and C1 was detected in much greater abundance relative to the others. […] The observed molecular weight of all enzymes in SDS-PAGE gel and immunoblot was not in accordance with the expected theoretical molecular weight taking into account that a 6×His tag was added C-terminally to the enzymes and in general, bands for all enzymes were detected at a higher molecular weight. For all samples, unspecific bands could detected at ˜25 kDa and ˜50 kDa after IMAC purification, most likely representing host cell protein-contaminations. The amount of protein in the culture media, ammonium sulfate concentrates and the final dialyzed elution fractions was determined using the BCA assay and the same fractions were incubated with chitin powder for 16 h at 30° C. followed by the quantification of reducing sugars to measure specific chitinase activity (Table 4.2). Thereby it was confirmed that all target enzymes were successfully enriched during purification according to the specific activity.
For the determination of enzymatic activity of recombinant chitinases, a reducing end assay was carried out [Svein et al., Carbohydr Polym, 2004. 56(1): p. 35-39.]. Fractions containing chitinases were incubated with 5% (w/v) chitin powder extracted from shrimp shells (˜400.000 g/mol; Carl Roth) in MAT buffer for 2 h in an overhead shaker at ambient temperature (standard conditions). Samples were centrifuged at 13000×g for 2 min and 40 μl of the supernatant was mixed with 40 μl 0.5 M NaOH and 40 μL of a reagent containing 1.5 mg/ml 3-Methyl-2-benzothiazolinonhydrazon and 0.75 mg/ml Dithiothreitol. Samples were incubated at 80° C. for 15 min and then thoroughly mixed with 80 μl of 0.5% (w/v) FeNH4(SO4)2)×12H2O, 0.5% (w/v) sulfamic acid and 0.25 M HCl. After cooling down to room temperature, 100 μl of the samples were measured at 620 nm. A calibration curve of N-acetyl-glucosamine was constructed freshly for each measuring cycle. One unit [U] was defined as the amount of enzyme required to release 1 μmol of reducing sugars per hour.

[2] = TLC analysis of cleavage patterns with chitin standard molecules; type: biochemical; conditions: for hydrolysis products from chitin pentamers / hydrolysis products from chitin trimers: 4 mg/ml, 16 h, TLC; for cleavage mechanism (exo-/endo-chitinase activity): TLC of products from oligomeric or polymeric chitin substrates
Procedure: monomeric oligomers. Chitosan was degraded to a crude mixture of multiple oligomers ranging from dimers to pentamers and even larger undefined yet water-soluble fragments that migrated slightly from the starting point. Further analysis of the cleavage patterns was carried out using chitin standard molecules of DP2-DP6 and incubating them at 4 mg/ml concentration with the individual enzymes (FIG. 9).
Dimeric chitin molecules were not converted by any of the enzymes. […] All chitinases degraded chitin tetramers to dimers as a single product. […] Chitin hexamers were degraded to dimers and trimers. Although all chitinases are different in their structure and present different glycosyl hydrolase domains hydrolysis products in general were similar.
C2, 4 and 5 yielded similar product patterns when incubated with insoluble substrates. […] The presented data underline that the novel chitinases are all suited for the degradation of powdery chitin without any further harsh chemical pre-treatment.
Hydrolysis products were analyzed using 10×10 cm TLC Silica gel 60 F254 plates (Merck, Darmstadt, Germany) and a mixture of butanol:methanol:25% ammonia:H2O (5:4:2:1) as mobile phase. A total sample volume of 0.5 μl was applied in 0.25 μl spots. Chitin standard sugars (Megazyme, Chicago, USA) (5 mg/ml) were applied to the plate (0.5 μL in 0.25 μL spots) as size standard for the determination of the DP. After separation, the plate was air-dried and the developing solution (200 ml Acetone, 30 ml phosphoric acid (85%), 4 ml aniline, 4 g diphenylamine) was sprayed on the plate followed by spot visualization at 300° C. using a heat gun.

[3] = test system: Septoria tritici; experiment: Minimum inhibitory concentration (MIC) test on fungal pathogens; type: cell-based; set-up: key: xx = no growth/strong inhibition; x = small inhibition; conditions: start concentration 100 μg/ml
[4] = test system: Gibberella zeae; type: cell-based; set-up: key: xx = no growth/strong inhibition; x = small inhibition; conditions: start concentration 100 μg/ml
[5] = test system: Fusarium oxysporum; experiment: Minimum inhibitory concentration (MIC) test on fungal pathogens; type: cell-based; set-up: key: xx = no growth/strong inhibition; x = small inhibition; conditions: start concentration 100 μg/ml
[6] = Dialysed elution fraction after IMAC

Molecule	Specific activity ([1]; Culture supernatant fraction) [U/mg]	Specific activity [1, 6] [U/mg]	hydrolysis products from chitin pentamers [2]	hydrolysis products from chitin trimers [2]	cleavage mechanism (exo-/endo-chitinase activity) [2]	growth inhibition of Septoria tritici in the MIC test [3]	growth inhibition of Gibberella zeae in the MIC test [4]	growth inhibition of Fusarium oxysporum in the MIC test [5]
B1	0.10	3.52	dimers and monomers	dimers and monomers	exo-chitinase activity	xx	x	xx
B2	0.13	8.13	dimers and monomers	dimers and monomers	exo-chitinase activity		x	xx
B3	0.07	6.07	trimers and dimers	dimers and monomers	endo-chitinase activity		x	xx
